This test addresses cyclophilin from Geobacillus kaustophilus (Geobacillus kaustophilus). The test can be described thus: NMR line shape analysis.

Regarding GSFGPDLRAGD [peptide substrate …], the koff of the trans isomer (kBA) stood at 720 s⁻¹ and the kon of the trans isomer (kAB) came out at 5.2e+06 M⁻¹ s⁻¹.
